The source of these data is US20220378956A1.

Experiment [1] deals with soluble uPAR (suPAR) (UniProt Q03405). As to the kind of experiment: SPR (Biacore 2000), antibody captured on protein A/G surface, suPAR injected, 25 C, 1:1 Langmuir fit. On the technique in general: Surface plasmon resonance follows binding to a sensor surface in real time, without labels.
Experiment [2] shares this target. Put plainly: SPR (Biacore 2000), antibody captured on rabbit anti-mouse surface, suPAR injected, 25 C, 1:1 Langmuir fit.

Usually Kd stands for the equilibrium constant for the complex coming apart. Low values mean higher affinity, high ones lower affinity.

The substance “Human Engineered ATN-658 variant HE ATN-4, renamed humanized mAb MNPR-101 (antibody)” came in with a Kd with soluble uPAR (suPAR) [1] of 0.39 nM.

In the experiment with soluble uPAR (suPAR) [2], mouse monoclonal antibody ATN-658 had a Kd of 0.38 nM.
